Experimental data taken from article PMC12400196, “Triosephosphate isomerase from Fasciola hepatica: high-resolution crystal structure as a drug target” (Acta Crystallographica Section F: Structural Biology …, 2025).

Target: the molecule itself
Experiment: SEC; HiLoad 16/600 Superdex 200 pg, 25 mM Tris, 300 mM NaCl pH 7.0, 277 K; preparative step after IMAC

B1: Triosephosphate isomerase from Fasciola hepatica (enzyme)
chain: MASNRKFFVGGNWKMNGSKESNQKLLKTLSDAKPDANTEILVAVPFVYLKDVREHLDKRFHVAAQNCYKVASGAFTGEISPAMIRDCGCEWVILGHSERRHIFGESDELIGEKVNHALTCGLKVVPCIGEKLDEREAGKTEQVCFRQLDAIKKGIPKAEDWSRVVIAYEPVWAIGTGKTASPEQAQEVHHAVRQWLEKNVSQAVASSLRITYGGSVTAANCKELAKKPDVDGFLVGGASLKPEFVDICNANRG
notes: triosephosphate isomerase (EC 5.3.1.1), Fasciola hepatica; gene in plasmid pET-46 Ek/LIC; The plasmid was provided by D. Timson (construct of Zinsser et al., 2013); also called FhTPI; F. hepatica TPI; source: E. coli Rosetta (DE3), purified (IMAC, SEC)
  stoichiometry N: 2
